Results as given in US20250066831.

Experiments:
[1] = test system: ELP-CVLS (protein substrate of the in vitro farnesylation reaction)
[2] = test system: V40 elastin-like polypeptide fused to CVLL
Chain of V40 elastin-like polypeptide fused to CVLL (chain, as listed by the source): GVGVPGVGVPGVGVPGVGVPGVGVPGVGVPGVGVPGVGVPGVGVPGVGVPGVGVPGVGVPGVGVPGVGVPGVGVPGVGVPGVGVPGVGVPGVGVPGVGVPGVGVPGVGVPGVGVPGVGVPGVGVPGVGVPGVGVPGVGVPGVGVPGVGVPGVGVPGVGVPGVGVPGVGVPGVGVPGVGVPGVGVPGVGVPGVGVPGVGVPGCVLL

Substance | in vitro farnesylation (3 µM ELP-CVLS, 0.2 µM FTase, 10 µM FPP, RP-HPLC) [1] | farnesylation on co-expression in E. coli (HPLC, MALDI-TOF MS, NMR of purified V40-Fr) [2]
farnesyltransferase (FTase) from Rattus norvegicus, heterodimer of alpha and beta subunits | In vitro farnesylation of ELPs with the soluble transferase (produced as a translationally coupled heterodimer) indicates that the recombinantly expressed enzyme is active | 
geranylgeranyl transferase type I (GGTase-I) from Rattus norvegicus, heterodimer of alpha and beta subunits |  | only one farnesyl group is added to the protein at the cysteine residue located in the C-terminal CaaX motif
